Test results published in patent US20210324050A1 (published 2021).

Columns and labels:
GII.3 = GII.3 (norovirus GII.3); assay: ELISA
GII.13 = GII.13 (norovirus GII.13); assay: ELISA
GII.6 [1] = target: GII.6 (norovirus GII.6); assay: ELISA
GII.4 Houston 2002 VLP [2] = target: T1, GII.4 Houston 2002 VLP (UniProt P54635 1-539); assay: VLP blockade
Shell domain = target: T2, Shell domain (UniProt P54635 1-221); assay: ELISA
T2 chain: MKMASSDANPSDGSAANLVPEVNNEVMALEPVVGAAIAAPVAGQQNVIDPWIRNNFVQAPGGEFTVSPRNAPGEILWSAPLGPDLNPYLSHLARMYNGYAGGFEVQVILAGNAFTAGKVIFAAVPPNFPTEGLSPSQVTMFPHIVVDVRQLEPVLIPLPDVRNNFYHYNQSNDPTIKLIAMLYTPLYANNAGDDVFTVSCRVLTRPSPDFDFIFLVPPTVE

Protruding domain = assay: ELISA
GII.4 = GII.4 (UniProt P54635 1-538); assay: VLP-PGM blockade
GII.6 [3] = target: GII.6 (norovirus GII.6); assay: VLP-PGM blockade
GII.17 Protruding = GII.17 Protruding (norovirus GII.17); assay: ELISA
GII.6 Protruding = GII.6 Protruding (norovirus GII.6); assay: ELISA
GII.4 Protruding = assay: ELISA
GII.4 Houston 2002 VLP [4] = target: T1, GII.4 Houston 2002 VLP; assay: ELISA binding
GII.17 = GII.17 (norovirus GII.17); assay: ELISA
GI.3 = GI.3 (norovirus GI.3); assay: ELISA
GI.3 Shell = GI.3 Shell (norovirus GI.3); assay: ELISA
GII.17 Shell = GII.17 Shell (norovirus GII.17); assay: ELISA
GII.6 Shell = GII.6 Shell (norovirus GII.6); assay: ELISA
GI.3 Protruding = GI.3 Protruding (norovirus GI.3); assay: ELISA

B1: 232A.2 (antibody, V domains shown)
VH: QVQLKQWGAGLLKSSETLSLTCAFNGNSFGAFYWSWIRLSPGKGLEWIGEVNYLGGADYNPSLKSRVTMSADTSKRQFSLSLKSVTAADTGVYFCARGRPHDYSPGSYSRPRRYYGLDVWGQGTTVTVSS
VL: EIVLTQSPATLSLSPGDSATLSCRASQAVSTTYLAWYQQTRGQAPRLLIHGTYTRAIGIPDKFSGTGSGTDFTLTISGLAPEDFAVYYCQQYSSSPYTFGQGTKIEIT
How did the EC50 (GII.3) turn out when B1 was run?
The EC50 was 0.001 µM.

What about the EC50 (GII.13) of the same binder?
Its EC50 is 0.002 µM.

And the EC50 (GII.6 [1])?
The EC50 was 0.001 µM.

What about the EC50 (GII.4 Houston 2002 VLP [2]) of the same binder?
Its EC50 is 5.4 mg/L.

And the EC50 (Shell domain)?
Its EC50 is 38.1 mg/L.

What about the EC50 (Protruding domain) of the same binder?
The EC50 was 0.4 mg/L.

And the EC50 (GII.4)?
Its EC50 is 0.115 µM.

What about the EC50 (GII.6 [3]) of the same binder?
The EC50 was 0.02 µM.

What about the EC50 (GII.17 Protruding) of the same binder?
Its EC50 is 0.002 µM.

What about the EC50 (GII.6 Protruding) of the same binder?
The EC50 was 0.002 µM.

And the EC50 (GII.4 Protruding)?
Its EC50 is 0.003 µM.

And the EC50 (GII.4 Houston 2002 VLP [4])?
The EC50 was 0.2 mg/L.

B2: 168.2 (antibody, V domains shown)
VH: QVQLVESGGGVVQPGRSLRLSCAASGFTFSSYAMHWVRQAPGKGLEWVAVISYDGSNKYYADSVKGRFTISRDNSKNTLYLQMNSLRAEDTAVYYCARSVIGYYYYGMDVWGQGTLVTVSS
VL: QPVLTQPPSASASLGASVTLTCTLSSGYSNYKVDWYQQRPGKGPRFVMRVGTGGIVGSKGDGIPDRFSVLGSGLNRYLTIKNIQEEDESDYHCGADHGSGILFGGGTKLTVL
For B2, which EC50 (GII.17) is on record?
Its EC50 is 0.153 µM.

What about the EC50 (GII.3) of the same binder?
The EC50 was 0.224 µM.

What about the EC50 (GII.13) of the same binder?
Its EC50 is 0.107 µM.

And the EC50 (GI.3)?
Its EC50 is 0.008 µM.

What about the EC50 (GI.3 Shell) of the same binder?
The EC50 was 0.037 µM.

What about the EC50 (GII.17 Protruding) of the same binder?
Its EC50 is 0.39 µM.

What about the EC50 (GII.17 Shell) of the same binder?
The EC50 was 0.183 µM.

What about the EC50 (GII.6 Protruding) of the same binder?
The EC50 was 0.135 µM.

And the EC50 (GII.6 Shell)?
Its EC50 is 0.162 µM.

What about the EC50 (GI.3 Protruding) of the same binder?
The EC50 was 0.143 µM.
